Laboratory results reported in US20130110249A1 (UNIVERSITY OF ROCHESTER, published 2013).

T1: recombinant His-glucosaminidase (His-Gmd) of Staphylococcus aureus autolysin (Staphylococcus aureus, UniProt A7X0T9 775-1254)
T1 construct: also called Gmd-His; recombinant Gmd
T1 sequence: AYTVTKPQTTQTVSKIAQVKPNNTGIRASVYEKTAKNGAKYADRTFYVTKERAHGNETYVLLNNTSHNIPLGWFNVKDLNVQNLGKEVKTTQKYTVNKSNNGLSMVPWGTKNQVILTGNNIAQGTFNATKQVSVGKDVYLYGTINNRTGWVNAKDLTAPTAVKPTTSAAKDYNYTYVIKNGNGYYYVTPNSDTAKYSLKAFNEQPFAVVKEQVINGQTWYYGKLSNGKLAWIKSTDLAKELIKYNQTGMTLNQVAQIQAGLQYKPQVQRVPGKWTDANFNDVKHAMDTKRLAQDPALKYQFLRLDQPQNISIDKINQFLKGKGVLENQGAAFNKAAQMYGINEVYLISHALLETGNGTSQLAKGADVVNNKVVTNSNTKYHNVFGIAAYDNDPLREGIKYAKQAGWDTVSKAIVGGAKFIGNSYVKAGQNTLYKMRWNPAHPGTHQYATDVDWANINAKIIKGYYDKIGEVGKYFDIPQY

T2: native Gmd of S. aureus Xen29 (Staphylococcus aureus, UniProt P0C5Z8 776-1255, limits assumed)
T2 construct: domain: glucosaminidase (Gmd) subunit of autolysin
T2 sequence (looked up): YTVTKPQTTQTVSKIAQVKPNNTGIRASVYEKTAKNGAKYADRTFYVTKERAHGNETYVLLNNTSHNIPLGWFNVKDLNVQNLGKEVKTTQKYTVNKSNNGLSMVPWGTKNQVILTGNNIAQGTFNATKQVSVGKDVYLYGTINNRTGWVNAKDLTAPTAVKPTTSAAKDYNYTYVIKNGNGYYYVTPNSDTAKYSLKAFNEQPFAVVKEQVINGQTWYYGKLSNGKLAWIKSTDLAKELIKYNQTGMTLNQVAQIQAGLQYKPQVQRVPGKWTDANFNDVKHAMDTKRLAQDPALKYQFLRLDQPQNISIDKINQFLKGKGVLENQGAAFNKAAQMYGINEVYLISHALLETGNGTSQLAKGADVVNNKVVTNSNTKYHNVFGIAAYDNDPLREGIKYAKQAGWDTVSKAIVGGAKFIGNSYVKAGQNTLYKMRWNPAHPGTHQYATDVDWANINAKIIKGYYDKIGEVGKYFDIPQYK


Tests used:
[1] = target: T1, recombinant His-glucosaminidase …; experiment: method not stated; hybridomas screened by ELISA and western dot-blot
[2] = target: T2, native Gmd of S. aureus Xen29; experiment: estimate from the dose dependence of the Xen29 growth (light scattering) assay, assuming about ten times the Kd is required

Row | Binder | Kd [1] | Kd [2]
1 | anti-Gmd monoclonal antibody 3A8 (antibody, V domains shown, also called mAb 3A8; hybridoma 3A8) VH: EVQLQESGGGLVQPGGSMKLSCAASGFTFSDAWMDWVRQSPEKGLEWVAEIKDKTNNHATYYAESVKGRFTISRDVSKSRVFLQMNSLRPEDTGIYYCTSGPYFDYWGQGTTLTVSS VL: DIVMTQSHKFMSTSVGDRVSITCKASQDVSTAVAWYQQKPGQSPKLLIYWTSTRHTGVPDRFTGSGSGTDFTLTISSVQAKDLALYYCQQHYTTPYTFGGGTKLEIK | ≤ 1 nM | ~1 nM
2 | anti-Gmd monoclonal antibody 1C11 (antibody, V domains shown, also called mAb 1C11; mouse 1C11) VH: QIQLVQSGPELKKPGETVKISCKASGYTFTTYGMSWVNQAPGKGLKWMGWINTYSGVPTYADDFKGRFVFSLETSASTAYLQINNLKNEDTATYFCAREEYSSGYAAWFPYWGQGTLVTVSA VL: DIVLTQSPATLSVTPGDSVSLSCRASQSISNNLHWYQQKSHESPRLLIEYASRSISGIPSRFSGGGSGTDFTLSINSVESEDFGLYFCQQSNSWPLTFGAGTKLELK | ≤ 1 nM | ~1 nM
